Measured values reported in the PETadex activity labels.

B1: unnamed (protein)
chain: MTGSTTTGGRPAPPSPPSQSSTTCTTSAVASMPILTPSRVTSAHSVSSCSARNDAGGTCTALTPVVLWAVSAVTTAMPYPPAAATDFRSAWIPAPPPGSDPATDRTLGTCSGDETVGSVDGMGDIPSSVRTASGSTGVISAPGGRTPCREDTVAPVRETVSHRTRPCASPARLPMPRHGVRAEPVGAVIRQRGRTMQHSSIRSRAARRVTAALASLTVAVGLGAASGSVAQAADNPYERGPAPSESSIEATRGHYAVSERNVSRFVSGFGGGTIYYPTTTSDGTFGAVVVSPGYTGTESSIDWLGPRLASQGFVVLTMATNTIYDQPDSRARQLQAALDYLTGSSPVADRIDDDRLALMGHSMGGGGTLRAVDDNPDIKAAIPMTPWHTKKNWSTVTTPTLVFAAENDSVARHETHAEPFYNSFSDDLPKAYLELDGASHFAPNFSNTTIAKYSISWLKRFVDDDSR
B2: unnamed (protein)
chain: MGGSMKLRSTAMRRRFVVLVAVVMLVVAACDWRGPAPTEQSLVAARGTFTVGTLAVPTSAGFGGGTIYYPGNHDGPFGVISISPGFLGNQSSIGEWGPRLASHGFVVITINTTNGFIQPPQRSTEQRQALSYVVAQGGVSSSPIFGIVDGARRGVAGHSMGGGASLISVQSDPSIKVAVPFAPWNSSANFSAVTSAVLIFACQNDSIAPVGSHASPMYNSIPASTDKSYVSVAGGDHFCANNPTGASGTAGKWALSYFKKFIDGDTRYDPWVCGASKPATGPVLNEVRSSCPF
B3: unnamed (protein)
chain: MNEVEPVNKSFLKKLSIGTGVLLVSMNALSWTPSPAPTPDPTPDPTPCQGDCDFTRGPNPTVSSVESSTGPYSVRTQSIASSVSGFGGGTIHYPTNTSGKMGAIAIAPGFLAPESSIIWWGPRLASHGFVVITIATNSVFDQPSSRGTQIGRALDYVISQSNASNSAISGMVDSTRVGAMGWSMGGGGALRLASGDRLSAAIPLAPWHQGGNSFNQLETPTLIIACENDNVAPVDRHASAFYNAIPSTTDKALLEIDGGAHSCANGDGSNDAVLGKYGISWMKRFIDNDLRYDQFLCGPNHAANSAVSEYRETCDY
B4: unnamed (protein)
chain: MKIDSIIKFLCTALLVTFSLGVYAGGGGGGDEPSNDGQLPAPDTCTSNCGYANGANPTLSSLQASQGQYSVGTVNVSSSVNGFGGGTIYYPTNLSGELAAIAIAPGFTNTQSAVQWWGPVLASRGFVVVTINTNGRFDFPSSRSRQLDSALNYLIYLGEQSSGAISGKVDKNRLATMGFSMGGGGALESASRNRLSATVPLAPWYSGSNPFNQINVPSMIMACENDGTAGVNTHASPFYNRIPGSTDKVYLELNNGSHNCATGQDSNYRTTISTYGVSWLKRFLDKDSRYNQFLCGPNHVANARISEFRDTCNF
B5: unnamed (protein)
chain: MTVCKLRMFTAQKHPVTNKIFGGSSMSSRKQDLRLRQLLYCLLLSTALGGAVVHAQTAPATIAQEAFNNGFGIFTAAGSATANGQAVLAGTFGGTDGSITSSPISTQGFSNITVSFDRTTVGLDNGEAGVAEFSVAGGAFTAIESAQTASGRMSFALAASAANQAQLRLRFRVVASRANETYSVDNVLVQGVAAGAQPPPPDPQPTNNPFQRGPTPSAATLEAAQGPFAVATTTVPNPSGFGAGTIYFPTSTTEGPFAAVSIAPGFSERQANVNWWGPRLASNGFVVVVIDTNSTSDAPASRATQLVAALRQVVTLSGTSGSPVFNKVDGNRLGVMGHSLGGGGTLIAAQNNPTLKAAIPFAPFNNDTNFSSVVVPTLIIACENDNVAPVADHASPFYNSFAASLDKAFLEIAGGSHSCANSGNNNMPILGKYGVSWMKLFMDNDTRYSPFLCGAPHQADLSGTQISEYRESCPY
B6: unnamed (protein)
chain: MKTTISPIKGLAIAVAIAMATVAQPALSQTSPPTSASLNATSGPLSVSTASVLLPVGFGGGTIYYPTVAGQYGVIAISPGFTATQSSIAWLGRRIATHGFVVITMDTNTTLDQPDSRATQLMAALRYVLNSSGTAVRSRVDTTRLAVAGHSMGGGGSLIAARDNPTLKASYPMTPWNLSTNFSTVRVPTMIIGADGDTIAPVATHARPFYASLPSTTFKAYGELNNGTHFSPNATSTPIGRYAVAWMKRFVDGDARYSPFLCGAEHTSYATALVFERYNQNCPY
B7: unnamed (protein)
chain: MPGYQGTQQNLQWLAPRLASWGFVVINVGTTTLSDDPASRGRQISAAGTQLLALGNATGNPVSGKTDGTLGAVGHSMGGGGVMAALRDDARFRAGVPTAPYYPNMNFSQVTDPTFFLTCQSDPVAHGNTYAAPWYTSMTQAEKLYIEVPGDHLCPMTGSGDKAKQGKWIVSFLSLWLRADTRFSPFLCGPVRDADKNNTSLVTRWMDTCQF

substrate: BHET; conditions: 120 h

Plate clearing, not clears the plate:
B1, B2, B3, B4, B5, B6, B7
